{"source": "paper PMC3763534", "conditions_in_all_cases": "20 mM Hepes pH 7.5, 100 mM KAc, 200 mM KCl, 3 mM MgCl2, 1 mM TCEP; 37 C, 20 min; RNA folded in 20 mM Hepes pH 7.5, 150 mM KCl, 5 mM MgCl2", "key": {"[1]": {"test_system": "40S ribosomal subunit (HeLa or RRL, used interchangeably) (Homo sapiens or rabbit)", "assay": "EMSA"}, "[2]": {"test_system": "80S ribosome", "assay": "EMSA"}, "[3]": {"test_system": "40S ribosomal subunit (RRL) (rabbit (reticulocyte lysate))", "assay": "EMSA"}, "[4]": {"test_system": "40S ribosomal subunit (HeLa) (Homo sapiens (HeLa))", "assay": "EMSA"}, "[5]": {"test_system": "40S ribosomal subunit (HeLa or RRL, used interchangeably) (Homo sapiens or rabbit)", "assay": "filter binding"}, "[6]": {"test_system": "40S ribosomal subunit (HeLa or RRL, used interchangeably);eIF3 (preparation not specified) (Homo sapiens or rabbit;Homo sapiens?)", "assay": "filter binding"}, "[7]": {"test_system": "eIF3 (preparation not specified)", "assay": "filter binding"}}, "data": [{"substance": "UAGACGAGCGGCCCUAAACAACACUCCAUAACAUUUUUUUUUUUUUUUUUUUUUUUUUUUUUUUUUUUUUUUUUUUUUUUUUUUUUUUUUUUUUUUCUUUCUUAUCUGUCUAUCCCUUAGACUCCUUCUUUGGUGGCUCCAUCUUAGCCCUAGUCACGGCUAGCUGUGAAAGGUCCGUGAGCCGCAUGACUGCAGAGAGUGCUGAUACUGGCCUCUCUGCAGUUCAUGU [HCV 3'UTR genotype 6b]", "values": [{"measurement": "Kd", "setting": "[1]", "value": 6.7, "unit": "nM"}]}, {"substance": "HCV 3'UTR genotype 3a", "values": [{"measurement": "Kd", "setting": "[1]", "value": 3.7, "unit": "nM"}]}, {"substance": "HCV 3'UTR genotype 2a", "values": [{"measurement": "Kd", "setting": "[1]", "value": 3.5, "unit": "nM"}]}, {"substance": "HCV 3'UTR", "values": [{"measurement": "Kd", "setting": "[2]", "value": 11.8, "unit": "nM"}, {"measurement": "Kd", "setting": "[3]", "value": 5.4, "unit": "nM"}, {"measurement": "Kd", "setting": "[4]", "value": 1.8, "unit": "nM"}, {"measurement": "Kd", "setting": "[5]", "value": 1.8, "unit": "nM"}, {"measurement": "Kd", "setting": "[6]", "value": 1, "unit": "nM"}, {"measurement": "Kd", "setting": "[7]", "value": 8.9, "unit": "nM"}]}, {"substance": "AGGUUGGGGUAAACACUCCGGCCUCUUAAGCCAUUUCCUGUUUUUUUUUUUUUUUUUUUUUUUUUUUUCUUUUUUUUUUUCUUUCCUUUCCUUCUUUUUUUCCUUUCUUUUUCCCUUCUUUAAUGGUGGCUCCAUCUUAGCCCUAGUCACGGCUAGCUGUGAAAGGUCCGUGAGCCGCAUGACUGCAGAGAGUGCUGAUACUGGCCUCUCUGCAGAUCAUGU [HCV 3'UTR genotype 1a]", "values": [{"measurement": "Kd", "setting": "[1]", "value": 6.7, "unit": "nM"}]}, {"substance": "HCV 3'UTR genotype 1b", "values": [{"measurement": "Kd", "setting": "[1]", "value": 4.7, "unit": "nM"}]}]}
